Among the data in article PMC8461249 are stoichiometry N (TGF-β dimer per bivalent Fc ligand) values, retold here.

Assay [1] deals with TβRII-SE/Fc (TβRII-Soluble Endogenous fused to the human IgG1 Fc domain) (human). Kind of assay: SPR; Biacore 3000, CM5 chip with anti-human Fc mixed with anti-mouse Fc antibodies; TβRII-SE/Fc or TβRII-Fc captured to 100–140 RU; TGF-β1, -β2 or -β3 injected at 0.4 to 30 nM, 50 μl/min, association 90 s, dissociation 300 s (900 s for slow rates); 0.1% surfactant; double referencing; 1:1 binding model; stoichiometry from Rmax and mass ratios. In general terms: Surface plasmon resonance follows binding to a sensor surface in real time, without labels.

Assay [2] has as its target TβRII-Fc (TβRII extracellular domain fused to human IgG1 Fc) (human) (UniProt P37173). Described as above.

Chain of TβRII-Fc (TβRII extracellular domain fused to human IgG1 Fc) (human) (P37173 23-166): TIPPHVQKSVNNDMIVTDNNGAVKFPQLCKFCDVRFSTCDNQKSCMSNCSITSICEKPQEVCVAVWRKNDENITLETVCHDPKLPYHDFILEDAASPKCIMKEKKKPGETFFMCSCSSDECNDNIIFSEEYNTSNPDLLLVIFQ

TGF-β3 (ligand): the stoichiometry N (TGF-β dimer per bivalent Fc ligand) in assay [1] came out at 1. Turning to TGF-β1 (ligand), the stoichiometry N (TGF-β dimer per bivalent Fc ligand) in assay [1] and in assay [2] was 1 throughout. As for TGF-β2 (ligand), the stoichiometry N (TGF-β dimer per bivalent Fc ligand) in assay [1] and in assay [2] was 1 each time.
